18 sequences from the DeepSol protein solubility set can be followed below.

This data set is described as follows: soluble on expression in E. coli; label from the status in PepcDB or PDB records.
In the case of “MSKATFDPTRYNKSNNEPFNQVLDKHLSRRNFVKSGLGLGAMTAFAGMGLTGCGSDSSSSPIPVDPVPPLPPTKSSAKLNFTSVKGARLNAVVVPEGYSAQVLAPWGTPLNAKAAPWKADGSNTADDQANSVGMHHDGMHFFPLNQAGDDGLLCINHEYIDEIALHPNGPTVDATTGLRTIVDEVRKEINAHGVSVVRIKLTNNQWEVVYNDKHNRRFTGATVMDIAGPLAYSPLLETRYSPDGSQARGTLNNCGNGYTPWGTYLTCEENWPEYFVNRSTLTRDQIRIGISKTSSRYGWDDLAGQDEERLDEFSRFDVTPKGVSARDDYRNEANGHGYIVEIDPYNPTSRAIKRTALGRFRHEGCTFGKLSEGQPVVFYSGHDARFEYLYKFVSAAPWNPQDANSSNRLEIGDKYMNEGTLYAAKFNENGVGAWLPLTLDSQTTDGKTLGNSFASLADIILNTAGAADLLGATPMDRPEWCAVDPFTGSVYLTLTNNSKRTEANPANPRLKNNFGHIIRWDEADKETEFTWDIFVFGSPSDGNAETNLSGLTDLNQFASPDGLAFDKRGILWVQTDNGAEEVAEETNDQMLAIVPSTLLDSANKQTSVTAKNQMELKRFFVGPNDCEVTGFAISPDYKTVFANIQHPGNWPYSNNAAEVTPTGVVLRPRAATVVIRKLDGKEVAVLEHHHHHH”, the “soluble on expression in E. coli” value is on record as “not soluble”. For “MSKEQAHAELKKDYLIHDEKIMLMQEIVDRQLAAVPDLYRVKDEVSIYIGIPFCPTKCAYCTFPAYAIQGQAGRVGSFLWGLHYEMQKIGEWLKEHDVKVTTIYFGGGTPTSITAEEMDLLYEEMVRSFPDVKNIREITVEAGRPDTITEEKLAVLNKYDIDRISINPQSYENETLKAIGRHHTVEETIEKYHLSRQHGMNNINMDLIIGLPGEGVKEFRHSLSETEKLMPESLTVHTLSFKR”, the “soluble on expression in E. coli” value is given as “not soluble”.

As to “MSKFYSEQFKRDAVALYENNENLSLAAAAAELRVNRASLHQWKKELGTGKRTRMIEAKAQAEAASDAERIRALEKENAKLREERDILRKAAKYFAEETSWLEHHHHHH”, the “soluble on expression in E. coli” value was “not soluble”. With “MSKKDVTKVVLDESDIPKQWYNILADMPNKPAPYFSSKTGKPVTLDELQAIFPMELIQQENSQERWIDIPEEVREMYRQWRPSPLYRARALEKHLGTPARIYYKYEGTNATGSHKLNTSLPQAYYNKIAGIKRLSTETGAGQWGSALSLACNHFGLECTVYMVKVSYEQKPYRRSFMKTFGAQVYASPTNLTSSGRAILEKDPDCTGSLGIAISEAVEDAATHDDTNYALGSVLNHVCLHQTIIGLEAKKQLEYLDEYPDVVFACCGGGSNFAGIAFPFLMDKFKGTKVRAVAVEPTACPTLTKGVYAYDYSDTGKIGPLAKMYTVGHDFVPAGIHAGGLRYHGVSPIVSQLYEDKLIEAKAYGQSSVFEAAVIFARTEGIVPAPESSHAIRAAIDEALLCKESGEAKVILFNLSGHGYFDMAAYDNYFSGKLSDVDYSEEEIARSMKNLPKVD” the entry was “soluble”. To “MSKKKGLSAEEKRTRMMEIFSETKDVFQLKDLEKIAPKEKGITAMSVKEVLQSLVDDGMVDCERIGTSNYYWAFPSKALHARKHKLEVLESQLSEGSQKHASLQKSIEKAKIGRCETEERTRLAKELSSLRDQREQLKAEVEKYKDCDPQVVEEIRQANKVAKEAANRWTDNIFAIKSWAKRKFGFEENKIDRTFGIPEDFDYID” belongs “soluble”; to “MSKKKVQNTNKKMKECWLTPIPQNVETVNMTVSFKIDEKDVGKPANEVIRINENSMVSFLSTNSFYNGLILSDKIVKVNGASGNISKYQTELMKGETCSVEVTRRKNIIPATRERLKKSGCVLRRDNTCFVIEVEKTSAMKSATVGVTVTYIQKRGIVTRIEPSSLASIFFGRGDLIMDINEESILNAEKNDDFIREKLSGILKGEKVTFLVERPVSVESANTLRHLIESVAPDPDVKMANDAICIGRNASNMHYNVLKKLQPKSILSRDVFKGKNPREKKPGKKLSKEKDNTIKISTATSTANISTDVAEDEIDNLKNVVTKSHAVRSGDEEEERGAFDDE”, “not soluble”. For “MSKMKRRTNKPRATESANSSTKSSVLDEPTLVERKQQKKQILKFVQRTLEKMPQGLRAEFVGMRRFNDFEKMKAFKEAQEAGKNRYKDVGCLDNNRVKLEGPWPHEYIHANYVATPTNPKRFICTQAPLEKTCADFWYMCYQDKVEYIFMLCNLLEKGARKCFEYFPSKKGDVMDFEEGGQKISVKCESSVTYSFRSDAKANVTATEIVIEGPGEKTRKTTHYHWNDWPDRGVPAADMAVLELLENARPSKGPIVVHCSAGIGRTGSVVMLEYIMDQLLAGQIIDDGEKILVKIREQRNNSIQTDAQYLFVHQVILNYFRKKKLMEETGVQEAYDAFLEQYKKVVV”, the “soluble on expression in E. coli” value is “soluble”. Regarding “MSKNTGSVAPKERVNIKYVPATSDEQAEVELPHKMLVLGDFGLDDSRALEDRQVMRIDKHTFNSVLNDANVSLDVTVPSRLGTAPDTELAVHLQFRSINDFGPDRIARQVPELNKLLALREALVALKGPLGNVPAFRKQLQHLLNNEQARKQLAQELDLVLEAPEKD”, the “soluble on expression in E. coli” value is “not soluble”. Regarding “MSKPEFIARQGRKPTGWLGHIVARVMARETRPENDRALSFLDLADGDSLIDIGCGHGETLFQADRIVRLSGSVGVDFSEVMLKRARARNRDAVWDTRMAFHCADTAALPFPDKRFGKALSVHTIYFWPNPAAHLAEAFRVLRRGGRFLFCYRSTADRRAVEEFPDTVYRFPSVQEVEEKLKLVGFLGPETTTEDIKGLEHHHHHH”, the “soluble on expression in E. coli” value is recorded as “not soluble”. Consider “MSKSEETLSSIMEASYRLFARHGITKTTYSMIAEEVGIAKPSIYYYFKSKDALIECIFTELCAAMQFSSFFHTEEFTKENFIEKCIEIGFKIIDEQQNDPYFNRVLQEYLLLSSRNDMYKDRLLTVQTEYLQGFESLLTKANELQLIENKNLVSKAHMLALVLDNVGNFMMLHVDIDYRQIWMEAVNIIFERRD”, for which the “soluble on expression in E. coli” value is listed as “not soluble”. Take “MSLAAPLTVGFSQVGSESGWRAAETNVAKSEAEKRGITLKIADGQQKQENQIKAVRSFVAQGVDAIFIAPVVATGWEPVLKEAKDAEIPVFLLDRSIDVKDKSLYMTTVTADNILEGKLIGDWLVKEVNGKPCNVVELQGTVGASVAIDRKKGFAEAIRNAPNIKIIRSQSGDFTRSKGKEVMESFIKAENNGKNICMVYAHNDDMVIGAIQAIKEAGLKPGKDILTGSIDGVPDIYKAMIDGEANASVELTPNMAGPAFDALEKYKKDGTMPEKLTLTKSTLYLPDTAKEELEKKKNMGYEGHHHHHH”: the “soluble on expression in E. coli” value is “soluble”. Regarding “MSLAARLIRSSRSNTFGIITDYVSTTPYSVDIVRGIQDWANANGKTILIANTGGSSEREVEIWKMFQSHRIDGVLYVTMYRRIVDPESGDVSIPTVMINCRPQTRELLPSIEPDDYQGARDLTRYLLERGHRRIGYIRLNPILLGAELRLDAFRRTTSEFGLTENDLSISLGMDGPVGAENNYVFAAATEMLKQDDRPTAIMSGNDEMAIQIYIAAMALGLRIPQDVSIVGFDDFRTVTMALKPELTTAALPYYDLGREGAKWLNDLIAGEKIYPGSRVVSCKLVERSSAAFGEGHHHHHH”, the “soluble on expression in E. coli” value was “soluble”. In the case of “MSLAATPRKLSSKEVAALVGNLMEASESTSLENGLEVRPYAFGENELNQLGDYHALRIINERFCRTARDVFLPMLRLQPRISSFPPEVRSFDDYRSSQDNFVSITASRIEELRGNQMIVIPPPFISLLTDSYYGGQIRHVPTTRTEFTATEERCIELVTDRLNVALQVAWRDLMALTFTVVSREESMQFASFVDGEDMVVNCSFMVQLPNTEPASFDILYPLQTLKPISSQLRSRMQSDFVDDDRSWREKLERAILSIPLTLSARLCEPEVPLRQLMQMQPGDVLPVHLTEALSLLVEGQPIFEAAPGERGGQAALNLTRRHVRGEGHHHHHH”, the “soluble on expression in E. coli” value was “soluble”.

“MSLAAYSLPVDVEAEDCTLGNGAVVTTNVYGTQYPGYSGDGFVWVANSGTITLEVTIPENGMYELSTRCWMYLGKEDETRMQVISINGKSHSNYFIPNKGQWIDYSFGFFYLEAGKATIEIGSSGSWGFILYDKIYFDHADMPDHIIDPTPCDPNATPETRALMKYLTSVYGKYVISGQQEIYGNGNDGNYELEFDYIYEKTGKYPAIRGFDFMNYNPLYGWEDGTTARIIDWVKNRGGIATACWHINIPRDFASYKLGEPVDWTNCTYKPTSSFNTANCLDETTKEHAYLMMAIEDLAEQLLILQEQNIPILFRPFHEAEGYNNTDGSGAWFWWGSAGAEVYKELWKLLYKTLTEKYGIHNLIWEVNLYTYANSYEWYPGDEYVDIIGYDKYEGSPNTWGTSAASSLFLTLVNYTNDTKMVALTENDVIPDIQNIVNEEAWWLYFCPWYGDFLMSPRYNDPVLLNTIYNSEYVITLDELPENLYEYDGEIPDINYGDLNNDGNINSTDYMILKKYILKVLERMNVPEKAADLNGDGSINSTDLTILKRFIMKAITKFPVTQKEGHHHHHH”: the “soluble on expression in E. coli” value is on record as “soluble”. For the sequence “MSLADGKTYKIGAAVYGLKGQFMQNWVRELKEHPAVKDGTVKITVFDGNYDALTQNNQIETMITQHYDAIIFVPIDTKAGVGTVARAMENDIPVIASNTRVAGNKVPYVGNDDVEGGRLQAQAMVDKLKGKGNVVIIQGPIGQSAQIDREKGELEVLSKHPDIKIIEKKTANWSRAEAQTLTEDWLNAHQNGGISGIISQNDDMALGALQAVKSRNLKPADVPITSIDGMPDAIQAAKKNEITTFLQDAQAQSQGALDVALRALAGKDYKPQSVIWQRYAKDVKWGDGTDEGHHHHHH”, the “soluble on expression in E. coli” value was “soluble”. With “MSLADIIIHNGSLITFDEARPQAQALAIQGGMIAAVGSDAEILALAGPETRLIDAGGGTVLPGFIDSHVHLFGGSVELDCLSLYGVKGLDAMRAAIQPYAQANPDDALVFCVMADYDILGTGHTLTRHDLDSILADRPLAMFAPDHHTVWANTAALEATGLLQGGEVDAGSLIVLGEDGLANGELLEPGAYGPILGLTRHGGREMLGLTTGKDPEPPATPDQRARDKDVIARGLAHCAAQGITGLHLMDGNRYQLELLTELEAEGRLLCRCEVPFHMKGTDPVERMTAEAPAMRAAYRGDKVRCNHLKMFIDGVIESGTALMLRPYPGELGANDNTGDEVFTQEHFTACCVEADRLGFQIAVHAIGDAGVRRTIDAFEAARRANGTRDSRHRIEHIEVIHPDDIPRLAELDIVASLQPGHAPRGHVFPPGAVGQYLHPDQIVGAYAWQTIRETGARVVFSTDWPVIPVDVMPSLRAAIAPLDLGPDWPDQSQSLMDTLASYTRDNAWVEFNEDSKGRLKVGMAADIAVLSHDLTALAPDDITQAAAMVTIMDGAVTYQREGHHHHHH” the entry was “soluble”; with “MSLADLTFPSLSYRTGPYAAGGIPFADGYADYFTLLNERDGGIGGVKANVLECETGYNTEKGVECYESTKGQGALVYQPLSTGITYQLIPKATADGIAIHSMGYGRTSAKNGNVFSHVFNYPANYWDGASGAVNYLLEINGGDIKGKKIALVYHNSAYGKEPIRTLEELSKKHGFDLSTLPVDHPGQEQKSQWLQIRRDKPDYVLMWGWGVMNQVAVQEAANIRFPMENFIGIWWSGSENDVLPAGDAANGYKALTFHNVGTAFPLFDDLQKYVIDAGKAAGAGDQVGTVLYNRGLYAAMLAAEAAKKAQEISGKADITAADMRDGMEALEMTEAKMAELGLPNFGPTFSVSCGNHGGDALVGVTQWDATSKTWSLISDFKPTDGDVIGALIEEDSSAYASENNISPRCNEGHHHHHH”, “soluble”; with “MSLAEGNYISRIRAKIGHDPLIMINTFAVLWNEKHDAIFLEQRADIPDGWGFPGGFVEYGESPMDAIVREVKEETNLDVKVKNMFEMISSVNPHNFWGDAQQNLSLGFEIELLDGKLQVDQSETLAAEFVPINPEPKMFVPAAQANMHRILTWEDRPKPWLIDSNIKSHSEGHHHHHH”, “soluble”.
